Laboratory results as given in paper PMC5686067, “Structural basis of adaptor-mediated protein degradation by the tail-specific PDZ-protease Prc” (Nature Communications, 2017).
Positions count from the first letter of the chain named. Names may count otherwise.

B1: sNlpI (soluble NlpI without its lipoprotein signal peptide) (natural protein, E. coli, UniProt P0AFB1 20-294, looked up)
chain: SNTSWRKSEVLAVPLQPTLQQEVILARMEQILASRALTDDERAQLLYERGVLYDSLGLRALARNDFSQALAIRPDMPEVFNYLGIYLTQAGNFDAAYEAFDSVLELDPTYNYAHLNRGIALYYGGRDKLAQDDLLAFYQDDPNDPFRSLWLYLAEQKLDEKQAKEVLKQHFEKSDKEQWGWNIVEFYLGNISEQTLMERLKADATDNTSLAEHLSETNFYLGKYYLSLGDLDSATALFKLAVANNVHNFVEHRYALLELSLLGQDQDDLAESDQQ
notes: NlpI, E. coli outer-membrane lipoprotein with four tetratricopeptide repeats, residues S20-Q294, without the lipoprotein signal peptide; Homodimer by AUC and in the crystal. pET28a vector with N-terminal His-tag; no removal of the tag is described; also called WT-NlpI; wild-type sNlpI; source: E. coli BL21(DE3), purified (Ni-NTA, MonoQ, Superdex 200); cleared cell lysate in the pull-down; not …
B2: sNlpI-L38A (natural protein, E. coli, UniProt P0AFB1 20-294, looked up)
chain: B1 chain with L19A
notes: NlpI, E. coli, residues S20-Q294 without the signal peptide, L38A in helix h1; source: E. coli BL21(DE3), purified (Ni-NTA, MonoQ, Superdex 200)
B3: sNlpI-R82E (natural protein, E. coli, UniProt P0AFB1 20-294, looked up)
chain: B1 chain with R63E
notes: NlpI, E. coli, residues S20-Q294 without the signal peptide, R82E in helix TPR1b; source: E. coli BL21(DE3), purified (Ni-NTA, MonoQ, Superdex 200)
B4: sNlpI-L38C (natural protein, E. coli, UniProt P0AFB1 20-294, looked up)
chain: B1 chain with L19C
notes: NlpI, E. coli, residues S20-Q294 without the signal peptide, L38C in helix h1; source: E. coli BL21(DE3), purified (Ni-NTA, MonoQ, Superdex 200)

Target: the molecule itself
Assay: AUC; sedimentation velocity, absorbance optics, 20 mM Tris-HCl pH 8.0, 100 mM NaCl, 2 mM DTT, 20 °C, c(s) model in Sedfit

Stoichiometry N, 2:
B1
B2
B3
B4
